* marks the point of attachment. 5FAM = O=C1OC2(c3ccc(O)cc3Oc3cc(O)ccc32)c2ccc(C(=O)*)cc21
B1: DAX1-3 FAM-labeled coregulator peptide (peptide)
peptide: 5FAM-QGSILYSLLMSAKQ-OH
SMILES: CC[C@H](C)[C@H](NC(=O)[C@H](CO)NC(=O)CNC(=O)[C@H](CCC(N)=O)NC(=O)c1ccc2c(c1)C(=O)OC21c2ccc(O)cc2Oc2cc(O)ccc21)C(=O)N[C@@H](CC(C)C)C(=O)N[C@@H](Cc1ccc(O)cc1)C(=O)N[C@@H](CO)C(=O)N[C@@H](CC(C)C)C(=O)N[C@@H](CC(C)C)C(=O)N[C@@H](CCSC)C(=O)N[C@@H](CO)C(=O)N[C@@H](C)C(=O)N[C@@H](CCCCN)C(=O)N[C@@H](CCC(N)=O)C(=O)O
B2: PGC1α FAM-labeled coregulator peptide (peptide)
peptide: 5FAM-EEPSLLKKLLLAPA-OH
SMILES: CC(C)C[C@H](NC(=O)[C@H](CC(C)C)NC(=O)[C@H](CC(C)C)NC(=O)[C@H](CCCCN)NC(=O)[C@H](CCCCN)NC(=O)[C@H](CC(C)C)NC(=O)[C@H](CC(C)C)NC(=O)[C@H](CO)NC(=O)[C@@H]1CCCN1C(=O)[C@H](CCC(=O)O)NC(=O)[C@H](CCC(=O)O)NC(=O)c1ccc2c(c1)C(=O)OC21c2ccc(O)cc2Oc2cc(O)ccc21)C(=O)N[C@@H](C)C(=O)N1CCC[C@H]1C(=O)N[C@@H](C)C(=O)O
B3: SHP-1 FAM-labeled coregulator peptide (peptide)
peptide: 5FAM-RPTILYALLSPSPR-OH
SMILES: CC[C@H](C)[C@H](NC(=O)[C@@H](NC(=O)[C@@H]1CCCN1C(=O)[C@H](CCCNC(=N)N)NC(=O)c1ccc2c(c1)C(=O)OC21c2ccc(O)cc2Oc2cc(O)ccc21)[C@@H](C)O)C(=O)N[C@@H](CC(C)C)C(=O)N[C@@H](Cc1ccc(O)cc1)C(=O)N[C@@H](C)C(=O)N[C@@H](CC(C)C)C(=O)N[C@@H](CC(C)C)C(=O)N[C@@H](CO)C(=O)N1CCC[C@H]1C(=O)N[C@@H](CO)C(=O)N1CCC[C@H]1C(=O)N[C@@H](CCCNC(=N)N)C(=O)O

The binders below were run against human LRH-1 (NR5A2) ligand-binding domain (LBD) (human, UniProt O00482-1 266-541) (assay: fluorescence polarisation).
Sequence of human LRH-1 (NR5A2) ligand-binding domain (LBD) (O00482 266-541): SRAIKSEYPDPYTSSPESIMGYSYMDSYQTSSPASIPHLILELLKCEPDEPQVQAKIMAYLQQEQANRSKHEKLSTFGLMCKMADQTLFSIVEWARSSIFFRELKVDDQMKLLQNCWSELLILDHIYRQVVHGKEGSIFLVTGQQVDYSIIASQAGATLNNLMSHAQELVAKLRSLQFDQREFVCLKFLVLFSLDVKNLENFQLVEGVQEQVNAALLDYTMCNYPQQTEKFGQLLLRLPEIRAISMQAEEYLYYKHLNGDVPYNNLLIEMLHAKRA

Binder	binding result
B1	binds
B2	binds
B3	binds
